Assay results: the supplement of paper PMC10126150
± gives the standard deviation of the averaged measurements.

Tested on: ATP
Test: switch fluorescence ratio, 500 uM ATP over buffer (Cy3 cluster intensity, sum of 5 cycles each) (fold (ratio)); higher = stronger signal-on switching upon ATP binding; sequences stand for … in TCGTCGGCAGCGTCAGATGTGTATAAGAGACAGTTTTTTTTTTTTTTTTTTTTTTTTT…TC
Details: aptamer strand: ATP DNA aptamer (quencher-CACCTGGGGGAGTATTGCGGAGGAAGG + anchor), 100 nM annealed; ATP concentration: 500 uM
Summary of the method: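 Switching-strand clusters labelled with Cy3 on a modified Illumina MiSeq flow-cell were annealed to 100 nM quencher-labelled ATP aptamer, imaged in selection buffer, and re-imaged after 15 min with 500 uM ATP at 22 °C. This was done over five cycles with NaOH stripping and re-annealing in between. The fluorescence ratio is summed target-cycle over summed buffer-cycle Cy3 intensity per cluster, averaged per switch-domain sequence, excluding clusters outside 100-1000 RFU.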
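Further: ATP exposure 15 min at 22 °C before imaging.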

## CGGTTGGCCA
  switch fluorescence ratio: 1 ± 0.018

## GTAATTGCGG
  switch fluorescence ratio: 0.9765 ± 0.0056

## ATAATTCGGT
  switch fluorescence ratio: 0.985 ± 0.025

## GGATTTAGGC
  switch fluorescence ratio: 0.977 ± 0.029

## TGAAGAAGGT
  switch fluorescence ratio: 1.03 ± 0.015

## AAGGTAGTGT
  switch fluorescence ratio: 0.989 ± 0.028

## CTCTTACTTT
  switch fluorescence ratio: 0.9862 ± 0.0084

## TGGGATATAT
  switch fluorescence ratio: 0.954 ± 0.034

## GAGAAAGCTA
  switch fluorescence ratio: 1.031 ± 0.0084

## TGTCTCGCCC
  switch fluorescence ratio: 1.02 ± 0.024

## GTGAATAGGG
  switch fluorescence ratio: 0.989 ± 0.028

## CCGTCCGGTT
  switch fluorescence ratio: 1.16 ± 0.018

## CCCGGCTGGT
  switch fluorescence ratio: 0.9956 ± 0.0095

## TATAGGGAAG
  switch fluorescence ratio: 1.02 ± 0.026

## CTTAGGAAAG
  switch fluorescence ratio: 0.98833 ± 0.00059

## AAGTTGTGTT
  switch fluorescence ratio: 0.996 ± 0.033

## CCAGAATTAA
  switch fluorescence ratio: 0.976 ± 0.011

## TAAGGGGCAA
  switch fluorescence ratio: 1.01 ± 0.018

## GGCTATGTGG
  switch fluorescence ratio: 0.987 ± 0.03

## GCGAGGGTCT
  switch fluorescence ratio: 1.01 ± 0.027

## GTAGGAATGT
  switch fluorescence ratio: 1.03 ± 0.036

## AAATCGGCTC
  switch fluorescence ratio: 0.989 ± 0.025

## CTATGGGTTT
  switch fluorescence ratio: 1.024 ± 0.0032

## CAAGATTCCA
  switch fluorescence ratio: 1.016 ± 0.0077

## AGGGAGGTGG
  switch fluorescence ratio: 1.02 ± 0.026

## TGGGAATTCC
  switch fluorescence ratio: 1 ± 0.011

## CGAGACAGGA
  switch fluorescence ratio: 1.007 ± 0.0017

## TGGTTGGGGT
  switch fluorescence ratio: 1.01 ± 0.054

## GGGGGGCCGT
  switch fluorescence ratio: 0.957 ± 0.025

## AGTAGGGCTC
  switch fluorescence ratio: 1 ± 0.046

## TATCCTGGCT
  switch fluorescence ratio: 0.9961 ± 0.0089

## GTAGAAAGTT
  switch fluorescence ratio: 0.984 ± 0.0028

## AGTTTGATGA
  switch fluorescence ratio: 0.989 ± 0.028

## GGACTATTTG
  switch fluorescence ratio: 1.003 ± 0.0011

## TTAAAGACCT
  switch fluorescence ratio: 1.45 ± 0.042

## ATTCACCGCG
  switch fluorescence ratio: 1.155 ± 0.0057

## CGTGCTAGTC
  switch fluorescence ratio: 1.04 ± 0.055

## ATGGATGGTG
  switch fluorescence ratio: 0.96 ± 0.029

## TCGTGTATAT
  switch fluorescence ratio: 1 ± 0.027

## GTTGCCTTGC
  switch fluorescence ratio: 1.06 ± 0.011

## TGCAACGTCG
  switch fluorescence ratio: 0.998 ± 0.019

## TCGAAAATAT
  switch fluorescence ratio: 1.5 ± 1

## GAATTCTCGT
  switch fluorescence ratio: 0.969 ± 0.024

## CGTATTTGGA
  switch fluorescence ratio: 0.985 ± 0.046

## GGAAGTGTGG
  switch fluorescence ratio: 1 ± 0.05

## TGGTAGATT
  switch fluorescence ratio: 1.01 ± 0.046

## CCAGCCCGGG
  switch fluorescence ratio: 1.008 ± 0.0051

## CCTGGGGCTG
  switch fluorescence ratio: 1.12 ± 0.14

## AACGAAGATT
  switch fluorescence ratio: 1.01 ± 0.019

## CGAGTATTGG
  switch fluorescence ratio: 0.974 ± 0.018

## AGGTGCAATT
  switch fluorescence ratio: 1.47 ± 0.54

## GTATTGAGAT
  switch fluorescence ratio: 0.973 ± 0.063

## TTGGTGGTCT
  switch fluorescence ratio: 1.05 ± 0.075

## TAGGATAGTG
  switch fluorescence ratio: 0.978 ± 0.043

## AGGTGCCAG
  switch fluorescence ratio: 0.96208 ± 0.00094

## TTTGTTTTGT
  switch fluorescence ratio: 1.01 ± 0.051

## TCCAAGCTGG
  switch fluorescence ratio: 1.03 ± 0.025

## TGGCCTGGGA
  switch fluorescence ratio: 1.026 ± 0.0056

## GTGGTTCTAT
  switch fluorescence ratio: 0.996 ± 0.026

## ATCCGCGGTG
  switch fluorescence ratio: 1.18 ± 0.075

## TTTTGTGATT
  switch fluorescence ratio: 0.984 ± 0.013

## GGTGCGCATG
  switch fluorescence ratio: 0.994 ± 0.011

## AGCAAGGGGG
  switch fluorescence ratio: 1.09 ± 0.11

## GATGTTAGTA
  switch fluorescence ratio: 0.973 ± 0.018

## GGGAAAAAAG
  switch fluorescence ratio: 0.994 ± 0.026

## TGCTTGCCTT
  switch fluorescence ratio: 0.9886 ± 0.0096

## CGTGCTCAGA
  switch fluorescence ratio: 0.996 ± 0.025

## CTTAAATGAA
  switch fluorescence ratio: 1.02 ± 0.036

## AGATGTTGAA
  switch fluorescence ratio: 0.979 ± 0.023

## ATGGTTCGCG
  switch fluorescence ratio: 1 ± 0.015

## CTTTAATGTT
  switch fluorescence ratio: 0.988 ± 0.037

## GCCTCAGGGT
  switch fluorescence ratio: 1.08 ± 0.02

## AGAAAAACAT
  switch fluorescence ratio: 1.034 ± 0.0073

## AACCTGTCGG
  switch fluorescence ratio: 1.01 ± 0.028

## CATTTCTTG
  switch fluorescence ratio: 0.985 ± 0.029

## AAAGGGGTAG
  switch fluorescence ratio: 0.9975 ± 0.0069

## TAACGCAGCT
  switch fluorescence ratio: 1.07 ± 0.073

## TTTTCGGATT
  switch fluorescence ratio: 0.9845 ± 0.0054

## AATGAGCGTT
  switch fluorescence ratio: 1.14 ± 0.16

## CGGGGATTAG
  switch fluorescence ratio: 0.994 ± 0.017

## TCGTGCGGTT
  switch fluorescence ratio: 1.01 ± 0.032

## GAAATTAAGC
  switch fluorescence ratio: 1.06 ± 0.057

## AGAGATTGGG
  switch fluorescence ratio: 0.965 ± 0.017

## AACTCAGCCG
  switch fluorescence ratio: 1.03 ± 0.013

## GGGGACAATG
  switch fluorescence ratio: 1.02 ± 0.044

## TATTTTTCAT
  switch fluorescence ratio: 1.01 ± 0.052

## CGGGGATTGC
  switch fluorescence ratio: 1.01 ± 0.016

## TTGTGCGTGG
  switch fluorescence ratio: 0.971 ± 0.015

## CCCTGGCACT
  switch fluorescence ratio: 1.12 ± 0.005

## AGTTAATAAT
  switch fluorescence ratio: 1.01 ± 0.032

## ATCGAATCCT
  switch fluorescence ratio: 1.09 ± 0.012

## CGAACCGGCG
  switch fluorescence ratio: 1.03 ± 0.017

## CGTAAAGGGA
  switch fluorescence ratio: 0.987 ± 0.013

## TTCCCTAAGG
  switch fluorescence ratio: 2.35 ± 1.7

## CGACGTATTG
  switch fluorescence ratio: 1.02 ± 0.03

## CATGGAACCT
  switch fluorescence ratio: 1.92 ± 0.11

## GTAGGGGGGA
  switch fluorescence ratio: 0.987 ± 0.04

## CGCAGAGGCT
  switch fluorescence ratio: 1.06 ± 0.044

## AGGGGGGGGA
  switch fluorescence ratio: 1.01 ± 0.05

## AAAAAAGGAC
  switch fluorescence ratio: 1.03 ± 0.044

## TTCTTTTAGG
  switch fluorescence ratio: 0.996 ± 0.03

## TGCGGATATG
  switch fluorescence ratio: 0.982 ± 0.023

## CCGTGTTCTA
  switch fluorescence ratio: 1.03 ± 0.063

## GGGAAGAAAT
  switch fluorescence ratio: 1 ± 0.037

## TGATGGAAGT
  switch fluorescence ratio: 0.986 ± 0.031

## TGGATATAGA
  switch fluorescence ratio: 1.01 ± 0.017

## TGGGGTAAAT
  switch fluorescence ratio: 1.01 ± 0.017

## ACGGGACGGA
  switch fluorescence ratio: 1.034 ± 0.0065

## AGGGTTGGAC
  switch fluorescence ratio: 0.9774 ± 0.0057

## TAGGAGGAGG
  switch fluorescence ratio: 0.984 ± 0.011

## TAACGGGTGG
  switch fluorescence ratio: 1.01 ± 0.037

## TCTTAAAGCA
  switch fluorescence ratio: 1.02 ± 0.06

## AAAAGCAGGG
  switch fluorescence ratio: 1 ± 0.014

## GACCATGGGG
  switch fluorescence ratio: 1.07 ± 0.098

## TAGCCTAGGT
  switch fluorescence ratio: 1.02 ± 0.017

## CTCTAGCCTC
  switch fluorescence ratio: 1.176 ± 0.0012

## CAGGGGTAGG
  switch fluorescence ratio: 1.09 ± 0.044

## TCGGACGACC
  switch fluorescence ratio: 1.15 ± 0.12

## GAACGGCTCG
  switch fluorescence ratio: 1.023 ± 0.0038

## TTTATGGGCG
  switch fluorescence ratio: 1.34 ± 0.64

## GTTTTTTGCG
  switch fluorescence ratio: 0.999 ± 0.036

## AATTAGTATG
  switch fluorescence ratio: 0.999 ± 0.014

## CGTCAGTGCA
  switch fluorescence ratio: 1.01 ± 0.024

## GCGGTACAGC
  switch fluorescence ratio: 0.9782 ± 0.0069

## GGGCTTGTAT
  switch fluorescence ratio: 1.03 ± 0.014

## TTTCGGTAAA
  switch fluorescence ratio: 1.026 ± 0.0039

## ATACTGGGAT
  switch fluorescence ratio: 1.031 ± 0.0015

## AGGTTTTGTT
  switch fluorescence ratio: 0.964 ± 0.017

## TTGAGTGTTA
  switch fluorescence ratio: 1.01 ± 0.011

## TCGGGGGTG
  switch fluorescence ratio: 1.01 ± 0.085

## GACTAGTTAT
  switch fluorescence ratio: 0.993 ± 0.019

## TTATAGATAG
  switch fluorescence ratio: 0.999 ± 0.018

## TGGGTTCGAG
  switch fluorescence ratio: 1.005 ± 0.0097

## ACGTGGGGTC
  switch fluorescence ratio: 1.02 ± 0.022

## GGACAGGCAT
  switch fluorescence ratio: 0.9852 ± 0.0091

## AAAGTGATAT
  switch fluorescence ratio: 1.01 ± 0.028

## CAGATCGGTT
  switch fluorescence ratio: 0.964 ± 0.014

## CCATCGTAAC
  switch fluorescence ratio: 2.28 ± 0.37

## TTGATGCGTG
  switch fluorescence ratio: 0.9661 ± 0.0063

## TATAAGGGGC
  switch fluorescence ratio: 0.997 ± 0.027

## ATTGGGAAAG
  switch fluorescence ratio: 1.02 ± 0.041

## TGCTTGGGGA
  switch fluorescence ratio: 0.983 ± 0.082

## GAAGGGTGCG
  switch fluorescence ratio: 1.02 ± 0.034

## GGGACGATTT
  switch fluorescence ratio: 0.995 ± 0.017

## TTTAAAAGGA
  switch fluorescence ratio: 1.01 ± 0.056

## ATGTCTTTGA
  switch fluorescence ratio: 1.03 ± 0.038

## CTGGGAGATT
  switch fluorescence ratio: 1.02 ± 0.039

## AATATTGGTA
  switch fluorescence ratio: 1.01 ± 0.018

## CATGTATTGA
  switch fluorescence ratio: 0.964 ± 0.024

## CTAGGGCTGA
  switch fluorescence ratio: 0.972 ± 0.013

## CCAAGTCCTG
  switch fluorescence ratio: 0.97 ± 0.092

## CTTAGATTTT
  switch fluorescence ratio: 0.988 ± 0.025

## TATATTAGCC
  switch fluorescence ratio: 1.03 ± 0.039

## TACGTTAGTA
  switch fluorescence ratio: 1.02 ± 0.033

## ATTTTTGGTC
  switch fluorescence ratio: 0.9864 ± 0.0038

## ACTAAAGGG
  switch fluorescence ratio: 1.02 ± 0.028

## ATGTCAGTGT
  switch fluorescence ratio: 0.985 ± 0.074
